Data published in patent US20240034801A1 (BEIJING HANMI PHARMACEUTICAL, published 2024).

Tests used:
[1] = target: T1, recombinant human 4-1BB (Sino Biological Inc., catalog number 10041-H08H) (human, UniProt Q07011 24-186); assay: ELISA, human 4-1BB coated (FIG. 8B; assay format inferred from the order of the methods)
T1 construct: Bought protein coated on the ELISA plate
Procedure: (§1) The detailed process is as follows: a 96-well high-adsorption ELISA plate (Costar, catalog number 42592) was coated with 1 μg/mL recombinant human PD-L1 (Sino Biological Inc., catalog number 100 84-H08H) or human 4-1BB (Sino Biological Inc., catalog number 10041-H08H) at 100 μL per well using carbonate buffer solution, pH=9.6 at 4° C. overnight. The plate was wash 5 times with PBST, and then blocked using PBST with 1% BSA 300 μL/well and incubated at 25° C. for 1 hour, and then washed 5 times with PBST. The heterodimeric antibody samples serially diluted in PBST with 1% BSA and the control were added, 100 μL per well and incubated at 25° C. for 1 hour. The plate was washed 5 times with PBST. The horseradish peroxidase-labeled anti-human IgG antibody (Chemicon, catalog number AP309P) diluted 1:10000 in PBST with 1% BSA was then added, 100 μL per well, and incubated at 25° C. for 1 hour. The plate was […] with PBST. The colorimetric substrate TMB was added, 100 μL/well, and developed at room temperature for 10 minutes. 1 M H₂SO₄, was added, 100 μL/well, to stop the development. The absorbance at 450 nm was read on a microplate reader.

[2] = target: T2, recombinant human PD-L1 (Sino Biological Inc., catalog number 100 84-H08H) (human, UniProt Q9NZQ7 19-239); assay: ELISA, recombinant human PD-L1 coated (FIG. 8A)
T2 construct: Bought protein coated on the ELISA plate
Procedure: as §1

T2 sequence (Q9NZQ7 19-239 limits assumed): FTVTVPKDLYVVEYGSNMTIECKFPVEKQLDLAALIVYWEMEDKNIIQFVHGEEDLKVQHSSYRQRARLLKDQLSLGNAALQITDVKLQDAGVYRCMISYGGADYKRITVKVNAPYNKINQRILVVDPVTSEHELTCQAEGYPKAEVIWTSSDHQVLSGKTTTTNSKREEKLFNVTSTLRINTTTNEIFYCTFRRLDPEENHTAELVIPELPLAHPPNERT

binding result [1]: binds
binding result [2]: binds
B1: anti-PD-L1/anti-4-1BB heterodimeric antibody BH3120h (bispecific antibody, human IgG1, kappa, N297A)
heavy 1: not shown
light 1: DIQMTQSPSSLSASVGDRVTITCKASQDVHTAVAWIQQKPGKSPKLLIYSASNRYTGVPSRFSGSGSGTDFTFTISSLQPEDIATYYCQQHYITPLTFGQGTKLEIKRTVAAPSVFIFPPSDEQLKSGTASVVCLLNNFYPREAKVQWKVDNALQSGNSQESVTEQDSKDSTYSLSSTLTLSKADYEKHKVYACEVTHQGLSSPVTKSFNRGEC
heavy 2: QVQLVQSGAEVKKPGSSVKVSCKASGYTFTSYWINWVRQAPGQGLEWMGNIYPSDSYTNYNQKFKDRVTITADKSTSTAYMELSSLRSEDTAVYYCARLYYGSSPFDYWGQGTTVTVSSASTKGPSVFPLAPSSKSTSGGTAALGCLVKDYFPEPVTVSWNSGALTSGVHTFPAVLQSSGLYSLSSVVTVPSSSLGTQTYICNVNHKPSNTKVDKKVEPKSCDKTHTCPPCPAPELLGGPSVFLFPPKPKDTLMISRTPEVTCVVVDVSHEDPEVKFNWYVDGVEVHNAKTKPREEQYASTYRVVSVLTVLHQDWLNGKEYKCKVSNKALPAPIEKTISKAKGQPREPQVYTEPPSRDELTKNQVSLTCLVKGFYPSDIAVEWESNGQPENNYKTTPPVLDSDGSFFLLSVLTVDKSRWQQGNVFSCSVMHEALHNHYTQKSLSLSPGK
light 2: not shown
notes: also called anti-PD-L1/anti-4-1BB bispecific antibody; anti-PD-L1/anti-4-1BB heterodimeric antibody molecule
